Data: patent publication US20080021198

Target: PP2A A-C hetero-dimer (bovine brain, unmethylated) (UniProt Q32PI5)
Sequence (Q32PI5 2-589, chain 1 of 2): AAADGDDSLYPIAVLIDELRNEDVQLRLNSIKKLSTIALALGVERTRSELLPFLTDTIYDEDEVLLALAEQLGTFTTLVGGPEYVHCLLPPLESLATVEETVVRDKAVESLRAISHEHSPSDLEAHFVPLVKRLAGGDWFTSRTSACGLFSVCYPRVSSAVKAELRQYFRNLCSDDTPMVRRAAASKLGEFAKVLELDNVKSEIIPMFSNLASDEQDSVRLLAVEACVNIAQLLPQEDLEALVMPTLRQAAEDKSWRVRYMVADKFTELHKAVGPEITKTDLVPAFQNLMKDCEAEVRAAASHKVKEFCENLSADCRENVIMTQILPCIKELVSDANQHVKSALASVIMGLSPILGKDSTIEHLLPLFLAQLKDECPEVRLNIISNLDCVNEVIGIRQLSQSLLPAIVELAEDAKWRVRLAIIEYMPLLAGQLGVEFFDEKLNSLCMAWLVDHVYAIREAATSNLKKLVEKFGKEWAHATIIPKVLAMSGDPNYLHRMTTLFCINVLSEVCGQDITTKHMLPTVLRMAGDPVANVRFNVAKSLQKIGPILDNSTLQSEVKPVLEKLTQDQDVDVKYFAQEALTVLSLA
Sequence (chain, as listed by the source, chain 2 of 2): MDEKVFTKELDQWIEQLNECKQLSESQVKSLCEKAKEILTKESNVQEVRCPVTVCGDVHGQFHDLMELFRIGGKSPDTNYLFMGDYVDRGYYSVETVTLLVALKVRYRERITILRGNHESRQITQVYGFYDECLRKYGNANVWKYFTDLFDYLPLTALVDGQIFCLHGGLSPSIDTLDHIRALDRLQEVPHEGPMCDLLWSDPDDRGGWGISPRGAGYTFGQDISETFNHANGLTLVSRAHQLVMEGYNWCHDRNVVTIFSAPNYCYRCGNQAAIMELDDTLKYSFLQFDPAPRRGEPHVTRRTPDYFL

PMTΔ19 (human PP2A methyl transferase with the N-terminal 19 residues truncated)
enzyme activity (in vitro enzymatic assay, FIG. 7): Truncation of the N-terminal 19 amino acids did not appear to have any effect on the enzyme activity
